Test results: PMC10496494 (2023)

Biological target: NPM1 (human wildtype nucleophosmin, residues 1 to 290), purified recombinant (human, UniProt P06748 1-290)
Test: SPR; NPM1 immobilised, DDX24^WT as analyte

Chain of NPM1 (human wildtype nucleophosmin, residues 1 to 290), purified recombinant (P06748 1-290): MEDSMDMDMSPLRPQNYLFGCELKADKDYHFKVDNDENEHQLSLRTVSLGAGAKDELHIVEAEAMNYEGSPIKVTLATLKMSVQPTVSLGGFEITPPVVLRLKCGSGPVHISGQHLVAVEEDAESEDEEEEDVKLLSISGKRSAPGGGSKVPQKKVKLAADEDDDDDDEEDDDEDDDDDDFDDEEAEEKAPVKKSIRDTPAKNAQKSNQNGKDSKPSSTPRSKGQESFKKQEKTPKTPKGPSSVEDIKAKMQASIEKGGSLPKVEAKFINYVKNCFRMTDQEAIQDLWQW

B1: DDX24^WT (human wildtype DDX24, residues 28 to 859), purified recombinant (domain or fragment)
chain: KWKEVKIDPNMFADGQMDDLVCFEELTDYQLVSPAKNPSSLFSKEAPKRKAQAVSEEEEEEEGKSSSPKKKIKLKKSKNVATEGTSTQKEFEVKDPELEAQGDDMVCDDPEAGEMTSENLVQTAPKKKKNKGKKGLEPSQSTAAKVPKKAKTWIPEVHDQKADVSAWKDLFVPRPVLRALSFLGFSAPTPIQALTLAPAIRDKLDILGAAETGSGKTLAFAIPMIHAVLQWQKRNAAPPPSNTEAPPGETRTEAGAETRSPGKAEAESDALPDDTVIESEALPSDIAAEARAKTGGTVSDQALLFGDDDAGEGPSSLIREKPVPKQNENEEENLDKEQTGNLKQELDDKSATCKAYPKRPLLGLVLTPTRELAVQVKQHIDAVARFTGIKTAILVGGMSTQKQQRMLNRRPEIVVATPGRLWELIKEKHYHLRNLRQLRCLVVDEADRMVEKGHFAELSQLLEMLNDSQYNPKRQTLVFSATLTLVHQAPARILHKKHTKKMDKTAKLDLLMQKIGMRGKPKVIDLTRNEATVETLTETKIHCETDEKDFYLYYFLMQYPGRSLVFANSISCIKRLSGLLKVLDIMPLTLHACMHQKQRLRNLEQFARLEDCVLLATDVAARGLDIPKVQHVIHYQVPRTSEIYVHRSGRTARATNEGLSLMLIGPEDVINFKKIYKTLKKDEDIPLFPVQTKYMDVVKERIRLARQIEKSEYRNFQACLHNSWIEQAAAALEIELEEDMYKGGKADQQEERRRQKQMKVLKKELRHLLSQPLFTESQKTKYPTQSGKPPLLVSAPSKSESALSCLSKQKKKKTKKPKEPQPEQPQPSTSAN
- Kd: 2.4 nM
